Data published in patent publication US20090280138A1 (OXFORD BIOMEDICA UK, published 2009).
Read-outs that look alike come from different tables or passages of the source.

Columns and labels:
[1] = molecular target: T1, MHC class I molecule HLA-A*0201 (iTopia plate-bound monomer) (biotin (bound to streptavidin-coated plate)); experiment: iTopia off-rate assay, 37 C; fit R^2 0.77
T1 construct: also called A2
Method: (§1) The 9 mers were tested for Peptide Binding, Off Rate and Affinity using iTopia Epitope Discovery System in accordance with the manufacturer's instructions. Briefly, 96 well microtitre plates coated with MHC molecules representing different MHC alleles are used to identify candidate peptides. […] Determinations are performed in duplicate using an ELISA plate reader and included allele specific positive controls.
(§2) A one-phase exponential decay curve, with a plateau given equal to 0, was generated using GraphPad Prism® software, which calculated the t1/2 and goodness-of-fit, as measured by r², for each peptide.

[2] = molecular target: T2, MHC class I molecule A*0101 (biotin (bound via biotin to streptavidin-coated plates)); experiment: iTopia affinity assay (ED50), peptide titration on plate-bound MHC
T2 construct: also called A1; HLA-A1
Method: as §1
(§3) Dose-response curves of peptide binding to MHC were prepared by peptide titration to determine the ED50 measurement for each peptide. Values for the concentrations tested (in duplicate) were obtained as a percentage of the highest (9000×) concentration of the positive control peptide. A dose-response curve was generated using GraphPad Prism® curve fitting software, which automatically calculated the ED50 (in Molarity) for each peptide.

[3] = molecular target: T3, MHC class I allele A*0101 monomer (human, biotinylated, bound to streptavidin-coated plate); experiment: iTopia, multiparametric iScore
T3 construct: placeholder peptide and b2M removed, then reconstituted with test peptide and fresh b2M; also called A1; HLA-A1
Summary of the method: (§4)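 The iScore combines the binding, off-rate and affinity results into one overall binding-quality value for each 9-mer. These measurements were made by ELISA in duplicate on MHC-coated plates, with allele-specific positive controls.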

[4] = molecular target: T4, MHC class I allele A*0201 monomer (human, biotinylated, bound to streptavidin-coated plate); experiment: iTopia, multiparametric iScore
T4 construct: also called A2; HLA-A2
Summary of the method: as §4

[5] = molecular target: T5, MHC class I allele A*0301 monomer (human, biotinylated, bound to streptavidin-coated plate); experiment: iTopia, multiparametric iScore
T5 construct: also called A3; HLA-A3
Summary of the method: as §4

[6] = molecular target: T6, MHC class I allele B*0702 monomer (human, biotinylated, bound to streptavidin-coated plate); experiment: iTopia, multiparametric iScore
T6 construct: also called B7; HLA-B7
Summary of the method: as §4

[7] = molecular target: T3, MHC class I allele A*0101 monomer; experiment: iTopia, multiparametric iScore; remark: listed apart in the source
Method: as §1
(§5) Finally, multiparametric analysis is performed on the results from these assays and an iScore is generated. The iScore represents a measure of the overall quality of peptide-MHC binding, enabling candidate peptides to be ranked in order of binding quality and allowing rational prioritisation of peptides for functional cellular follow-up studies.

[8] = molecular target: T5, MHC class I allele A*0301 monomer; experiment: iTopia, multiparametric iScore; remark: listed apart in the source
Method: as §1, §5

[9] = molecular target: T1, MHC class I molecule HLA-A*0201 (iTopia …); experiment: iTopia off-rate assay, 37 C; fit R^2 0.89
Method: as §1, §2

[10] = molecular target: T1, MHC class I molecule HLA-A*0201 (iTopia …); experiment: iTopia off-rate assay, 37 C; fit R^2 0.85
Method: as §1, §2

[11] = molecular target: T1, MHC class I molecule HLA-A*0201 (iTopia …); experiment: iTopia off-rate assay, 37 C; fit R^2 0.97
Method: as §1, §2

[12] = molecular target: T1, MHC class I molecule HLA-A*0201 (iTopia …); experiment: iTopia off-rate assay, 37 C; fit R^2 0.9
Method: as §1, §2

[13] = molecular target: T1, MHC class I molecule HLA-A*0201 (iTopia …); experiment: iTopia off-rate assay, 37 C; fit R^2 0.98
Method: as §1, §2

[14] = molecular target: T1, MHC class I molecule HLA-A*0201 (iTopia …); experiment: iTopia off-rate assay, 37 C; fit R^2 0.91
Method: as §1, §2

[15] = molecular target: T4, MHC class I allele A*0201 monomer; experiment: iTopia, multiparametric iScore; remark: listed apart in the source
Method: as §1, §5

[16] = molecular target: T7, MHC class I molecule A*0301 (biotin (bound via biotin to streptavidin-coated plates)); experiment: iTopia affinity assay (ED50), peptide titration on plate-bound MHC
T7 construct: also called A3; HLA-A3
Method: as §1, §3

[17] = molecular target: T1, MHC class I molecule HLA-A*0201 (iTopia …); experiment: iTopia off-rate assay, 37 C; fit R^2 0.95
Method: as §1, §2

[18] = molecular target: T1, MHC class I molecule HLA-A*0201 (iTopia …); experiment: iTopia off-rate assay, 37 C; fit R^2 0.94
Method: as §1, §2

[19] = molecular target: T6, MHC class I allele B*0702 monomer; experiment: iTopia, multiparametric iScore; remark: listed apart in the source
Method: as §1, §5

[20] = molecular target: T8, MHC class I molecule A*0201 (biotin (bound via biotin to streptavidin-coated plates)); experiment: iTopia affinity assay (ED50), peptide titration on plate-bound MHC
T8 construct: also called A2; HLA-A2
Method: as §1, §3

[21] = molecular target: T9, MHC class I molecule B*0702 (biotin (bound via biotin to streptavidin-coated plates)); experiment: as above
T9 construct: Methods name B*0702 as the allele used; also called B7; HLA-B7
Method: as §1, §3

[22] = molecular target: T1, MHC class I molecule HLA-A*0201 (iTopia …); experiment: iTopia off-rate assay, 37 C; fit R^2 0.87
Method: as §1, §2

B1: 5T4 9-mer peptide 46 AYVRNLFLT (peptide)
peptide: AYVRNLFLT
notes: also called Peptide No 46
t½ half life [1]: 6.8 h

B2: 5T4 9 mer peptide 198 (HMEGYHYRY) (peptide)
peptide: HMEGYHYRY
EC50 [2]: 3 µM

B3: 5T4 9-mer peptide 198 (peptide)
peptide: HMEGYHYRY
iScore [3]: 0.357
iScore [4]: 0.24
iScore [5]: 0.189
iScore [6]: 0
iScore [7]: 0.357
iScore [8]: 0.189

B4: 5T4 9-mer peptide 139 TLAELQGLP (peptide)
peptide: TLAELQGLP
t½ half life [9]: 0.7 h

B5: 5T4 9-mer peptide 149 VCDCHMADM (peptide)
peptide: VCDCHMADM
notes: also called Peptide No 149
t½ half life [10]: 1.4 h

B6: 5T4 9-mer peptide 161 (peptide)
peptide: LTCAYPEKM
iScore [3]: 0.139
iScore [4]: 0.158
iScore [5]: 0
iScore [6]: 0
iScore [7]: 0.139

B7: 5T4 9-mer peptide 24 FLASAVSAQ (peptide)
peptide: FLASAVSAQ
notes: also called Peptide No 24
t½ half life [11]: 0.7 h

B8: 5T4 9-mer peptide 102 LLAGRALQG (peptide)
peptide: LLAGRALQG
notes: also called Peptide No 102
t½ half life [12]: 1.4 h

B9: 5T4 9-mer peptide 48 NLFLTGNQL (peptide)
peptide: NLFLTGNQL
notes: also called Peptide No 48
t½ half life [13]: 0.5 h

B10: 5T4 9-mer peptide 79 LSPFAFSGS (peptide)
peptide: LSPFAFSGS
notes: also called Peptide No 79
t½ half life [10]: 0.4 h

B11: 5T4 9-mer peptide 19 SASSFSSSA (peptide)
peptide: SASSFSSSA
notes: also called Peptide No 19
t½ half life [14]: 0.2 h

B12: 5T4 9-mer peptide 186 (peptide)
peptide: LLVLYLNRK
iScore [3]: 0
iScore [4]: 0.386
iScore [5]: 0.372
iScore [15]: 0.386
iScore [8]: 0.375

B13: 5T4 9 mer peptide 147 (NNPWVCDCH) (peptide)
peptide: NNPWVCDCH
EC50 [16]: 3 µM

B14: 5T4 9-mer peptide 81 AFSGSNASV (peptide)
peptide: AFSGSNASV
notes: also called Peptide No 81
t½ half life [17]: 0.7 h

B15: 5T4 9-mer peptide 192 KWMHNIRDA (peptide)
peptide: KWMHNIRDA
notes: also called Peptide No 192
t½ half life [10]: 1.4 h

B16: 5T4 9 mer peptide 100 (VVAALLAGR) (peptide)
peptide: VVAALLAGR
EC50 [16]: 10 µM

B17: 5T4 9-mer peptide 64 GSRLDEVRA (peptide)
peptide: GSRLDEVRA
notes: also called Peptide No 64
t½ half life [18]: 1.9 h

B18: 5T4 9-mer peptide 125 (peptide)
peptide: LTYVSFRNL
iScore [3]: 0.522
iScore [4]: 1.11
iScore [5]: 0.157
iScore [6]: 0.574
iScore [7]: 0.522
iScore [15]: 1.11
iScore [8]: 0.157
iScore [19]: 0.574

B19: 5T4 9-mer peptide 56 FARRPPLAE (peptide)
peptide: FARRPPLAE
notes: also called Peptide No 56
t½ half life [18]: 0.3 h

B20: 5T4 9-mer peptide 78 ADLSPFAFS (peptide)
peptide: ADLSPFAFS
notes: it stands between 77 and 79; also called Peptide No 78
t½ half life [14]: 2.6 h

B21: 5T4 9 mer peptide 43 (VPTDLPAYV) (peptide)
peptide: VPTDLPAYV
EC50 [2]: 20 µM
EC50 [20]: 20 µM

B22: 5T4 9-mer peptide 18 TSSASSFSS (peptide)
peptide: TSSASSFSS
notes: also called Peptide No 18
t½ half life [11]: 0.7 h

B23: 5T4 9-mer peptide 6 AGDGRLRLA (peptide)
peptide: AGDGRLRLA
notes: also called Peptide No 6
t½ half life [18]: 0.1 h

B24: 5T4 9-mer peptide 109 (peptide)
peptide: LASNHFLYL
iScore [7]: 0.12
iScore [15]: 0.337
iScore [8]: 0.224

B25: 5T4 9 mer peptide 109 (LASNHFLYL) (peptide)
peptide: LASNHFLYL
EC50 [2]: 20 µM
EC50 [20]: 0.6 µM
EC50 [16]: 30 µM

B26: 5T4 9-mer peptide 22 SSAPFLASA (peptide)
peptide: SSAPFLASA
notes: also called Peptide No 22
t½ half life [13]: 1.3 h

B27: 5T4 9 mer peptide 8 (RLRLARLAL) (peptide)
peptide: RLRLARLAL
EC50 [20]: 0.06 µM
EC50 [16]: 0.4 µM
EC50 [21]: 0.02 µM

B28: 5T4 9-mer peptide 108 LELASNHFL (peptide)
peptide: LELASNHFL
t½ half life [17]: 1.4 h

B29: 5T4 9-mer peptide 43 (peptide)
peptide: VPTDLPAYV
iScore [7]: 0.098

B30: 5T4 9-mer peptide 96 QNRSFEGMV (peptide)
peptide: QNRSFEGMV
notes: also called Peptide No 96
t½ half life [22]: 2.4 h

B31: 5T4 9 mer peptide 65 (RLDEVRAGA) (peptide)
peptide: RLDEVRAGA
EC50 [20]: 20 µM
EC50 [16]: 40 µM
EC50 [21]: 20 µM

B32: 5T4 9 mer peptide 161 (LTCAYPEKM) (peptide)
peptide: LTCAYPEKM
EC50 [2]: 20 µM
EC50 [20]: 10 µM

B33: 5T4 9-mer peptide 142 (peptide)
peptide: GLPHIRVFL
iScore [3]: 0
iScore [4]: 1.89
iScore [5]: 0.319
iScore [6]: 0.075
iScore [15]: 1.39
iScore [8]: 0.319

B34: 5T4 9-mer peptide 41 NLTEVPTDL (peptide)
peptide: NLTEVPTDL
notes: also called Peptide No 41
t½ half life [13]: 1.4 h

B35: 5T4 9 mer peptide 125 (LTYVSFRNL) (peptide)
peptide: LTYVSFRNL
EC50 [2]: 3 µM
EC50 [20]: 0.4 µM
EC50 [16]: 3 µM
EC50 [21]: 3 µM

B36: 5T4 9-mer peptide 100 (peptide)
peptide: VVAALLAGR
iScore [8]: 0.125

B37: 5T4 9-mer peptide 26 AVSAQPPLP (peptide)
peptide: AVSAQPPLP
notes: also called Peptide No 26
t½ half life [9]: 1.7 h

B38: 5T4 9-mer peptide 116 AQLPSLRHL (peptide)
peptide: AQLPSLRHL
t½ half life [17]: 0.7 h

B39: 5T4 9-mer peptide 29 PLPDQCPAL (peptide)
peptide: PLPDQCPAL
notes: also called Peptide No 29
t½ half life [1]: 2.8 h

B40: 5T4 9-mer peptide 14 GWVSSSSPT (peptide)
peptide: GWVSSSSPT
notes: also called Peptide No 14
t½ half life [18]: 1 h

B41: 5T4 9-mer peptide 141 LQGLPHIRV (peptide)
peptide: LQGLPHIRV
notes: also called Peptide No 141
t½ half life [22]: 1.1 h
